Measurements as given in paper doi:10.1101/2023.09.14.557805, “Determinants of DDX3X sensitivity uncovered using a helicase activity in translation reporter” (bioRxiv, 2023).

Target: T1, S. cerevisiae eIF4E (S. cerevisiae, UniProt P07260 1-213)
T1 construct: eIF4E of S. cerevisiae; 15N isotope labelled; m7GTP added to 250 μM in the NMR sample; source: E. coli BL21-star, purified (nickel resin, TEV cleavage, m7G cap resin)
T1 sequence (looked up): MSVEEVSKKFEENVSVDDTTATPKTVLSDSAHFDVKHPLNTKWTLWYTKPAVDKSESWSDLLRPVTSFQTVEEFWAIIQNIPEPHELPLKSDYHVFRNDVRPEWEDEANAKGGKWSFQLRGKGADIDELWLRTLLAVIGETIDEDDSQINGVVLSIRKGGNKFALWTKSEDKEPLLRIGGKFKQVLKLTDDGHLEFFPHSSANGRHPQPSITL
Assay: NMR titration; 15N HSQC of 200 μM 15N eIF4E with 250 μM m7GTP, peptide added to 1 mM; 50 mM phosphate pH 6.5, 50 mM KCl, 10% D2O, 298 K, 900 MHz
Details: both partners purified

binding result: binds
B1: 4E-BP1 peptide (human 4E-BP1 amino acids 51–67) (peptide)
peptide: RIIYDRKFLMECRNSPV
notes: 4E-BP1, human, amino acids 51–67; Dissolved at 50 mM in DMSO; source: synthetic peptide (Elim Bio)
